Results as given in the supplement of paper PMC10065799, “High-throughput profiling of sequence recognition by tyrosine kinases and SH2 domains using bacterial peptide display” (eLife, 2023).

molecular target: MERTK (UniProt Q12866); experiment: phosphorylation enrichment, bacterial display (enrichment ratio); higher = better substrate or ligand; peptides without Tyr show the background
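Further: 11-residue human phosphosite peptides and single-mutation variants displayed on the E. coli surface, counted by deep sequencing, each peptide's frequency after selection divided by its frequency in the unselected input library; frequency after pTyr selection over input frequency; kinase dosed for 20-30% of maximal phosphorylation in three min.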

Chain of MERTK (Q12866 whole entry, looked up): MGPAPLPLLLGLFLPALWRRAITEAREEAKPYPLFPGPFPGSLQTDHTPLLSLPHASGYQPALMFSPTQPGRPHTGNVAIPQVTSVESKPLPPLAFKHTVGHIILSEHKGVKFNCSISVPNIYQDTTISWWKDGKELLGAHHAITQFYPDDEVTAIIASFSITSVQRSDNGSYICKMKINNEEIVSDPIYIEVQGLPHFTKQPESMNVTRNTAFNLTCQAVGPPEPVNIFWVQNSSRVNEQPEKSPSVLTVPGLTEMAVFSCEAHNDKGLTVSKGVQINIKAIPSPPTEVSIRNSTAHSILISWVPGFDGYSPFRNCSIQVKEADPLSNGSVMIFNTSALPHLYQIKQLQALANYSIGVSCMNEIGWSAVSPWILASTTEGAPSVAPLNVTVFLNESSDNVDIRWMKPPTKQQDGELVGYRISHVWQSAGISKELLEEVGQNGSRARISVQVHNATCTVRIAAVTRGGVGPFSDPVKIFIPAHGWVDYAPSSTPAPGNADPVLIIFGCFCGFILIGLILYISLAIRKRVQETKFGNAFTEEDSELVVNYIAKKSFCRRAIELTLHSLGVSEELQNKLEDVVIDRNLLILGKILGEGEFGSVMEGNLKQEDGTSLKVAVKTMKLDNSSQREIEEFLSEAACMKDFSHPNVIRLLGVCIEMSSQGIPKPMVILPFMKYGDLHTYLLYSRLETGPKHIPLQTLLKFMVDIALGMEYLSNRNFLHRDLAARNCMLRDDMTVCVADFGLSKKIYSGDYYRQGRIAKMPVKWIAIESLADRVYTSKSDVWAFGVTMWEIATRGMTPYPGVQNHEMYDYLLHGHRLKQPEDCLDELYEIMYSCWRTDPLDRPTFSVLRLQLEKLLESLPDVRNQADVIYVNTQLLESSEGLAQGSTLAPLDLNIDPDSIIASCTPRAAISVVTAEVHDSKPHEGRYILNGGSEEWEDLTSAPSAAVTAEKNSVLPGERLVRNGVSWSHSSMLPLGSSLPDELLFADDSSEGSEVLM

In order of rising phosphorylation enrichment:
1. QHNPEYVQQAT [LRRC7_Y1058_S1063T]  0.238
2. LSALDYKIFFF [WDPCP_Y210_YF]  0.332
3. FIGVTYKNEED [PDGFRA_Y993_YF]  0.336
4. TEDPEYDVQSK [PTCHD3_Y335]  0.358
5. TSKLNYLDPRI [TOP1_Y723]  0.359
6. AGGTRYRFVSQ [UCN3_Y95_R91G_YF]  0.363
7. DHAGMYGLGDR [MAPT_Y18_T17M]  0.371
8. GHGEEYPVAGA [NOTCH3_Y2221_A2223V]  0.373
9. KKLAEYGPQGR [CLCA1_Y147]  0.379
10. CLLHCYFSQIR [MCM3AP_Y873]  0.401
11. EPDSLYGCGRG [ATM_Y2019_G2023R]  0.419
12. AGLEEYSAMRD [HRAS_Y64_Q61L]  0.429
13. LLARLYRGQAL [FGFR4_Y390_G388R]  0.442
14. RTLSEYARPHV [RERE_Y1259]  0.443
15. GGMTEYELVVV [KRAS_Y4_K5E]  0.456
16. SMAKFYASGIA [ACADSB_Y373_E376G_YF]  0.464
17. NVVHEYSSELE [FGB_Y172_N170H]  0.473
18. AVNNFYAAKKT [CCDC178_Y422_D420N]  0.475
19. WKEREYEVVRD [CPS1_Y634_I632R]  0.478
20. VECRVYAEDPF [PCCA_Y401_YF]  0.481
21. HKGASYVFRLS [PTPRD_Y891]  0.512
22. DGLALYTGSAL [COL6A3_Y524_S521L]  0.55
23. LNERHYGGLTD [PGAM2_Y92_G97D]  0.629
24. YDEYRYRSVIK [CFTR_Y517]  0.706
25. ALAAPYVLYPS [CEFIP_Y1332_G1337S]  0.721
26. TYTVSYLPDMS [FLNC_Y1602]  0.733
27. REESTYLPLTS [ICAM3_Y527]  0.803
28. GTPVMYTYDEY [COL10A1_Y623]  0.804
29. QRAADYYSQQM [GBP6_Y333]  0.813
30. YRDALYKFMVD [PHEX_Y250]  1.2
31. HPFNSYTFPRL [PAK5_Y316_S312P_YF]  1.41
32. RDSQLYAVDYE [MRPS34_Y34]  2.12
33. QNTGNYYDLYG [PTPN11_Y62_D61N]  13.2

molecular target: FGFR1 (UniProt P11362); experiment: as above
Sequence (P11362 whole entry, looked up): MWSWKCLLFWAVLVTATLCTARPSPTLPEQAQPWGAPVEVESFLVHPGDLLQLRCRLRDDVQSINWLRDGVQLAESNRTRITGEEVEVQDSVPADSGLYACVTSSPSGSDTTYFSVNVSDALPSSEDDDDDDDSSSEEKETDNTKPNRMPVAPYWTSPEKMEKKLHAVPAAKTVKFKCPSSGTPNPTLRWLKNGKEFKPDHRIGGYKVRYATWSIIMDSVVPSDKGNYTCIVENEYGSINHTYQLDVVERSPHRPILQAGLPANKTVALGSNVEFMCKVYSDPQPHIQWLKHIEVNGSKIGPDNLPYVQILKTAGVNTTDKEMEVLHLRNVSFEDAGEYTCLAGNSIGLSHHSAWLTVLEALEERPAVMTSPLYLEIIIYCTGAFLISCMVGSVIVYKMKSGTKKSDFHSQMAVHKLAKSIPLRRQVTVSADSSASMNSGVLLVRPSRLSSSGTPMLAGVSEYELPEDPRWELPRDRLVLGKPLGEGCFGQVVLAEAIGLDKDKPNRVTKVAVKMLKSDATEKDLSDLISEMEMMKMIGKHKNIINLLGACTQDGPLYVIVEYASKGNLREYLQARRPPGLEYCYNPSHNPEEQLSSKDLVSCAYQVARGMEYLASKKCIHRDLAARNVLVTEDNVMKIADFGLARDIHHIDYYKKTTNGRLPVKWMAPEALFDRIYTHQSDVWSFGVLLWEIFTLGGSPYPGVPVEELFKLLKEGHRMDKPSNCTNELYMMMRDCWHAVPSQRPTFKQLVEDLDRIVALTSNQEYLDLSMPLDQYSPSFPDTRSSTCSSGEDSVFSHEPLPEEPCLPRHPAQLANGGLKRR

In order of rising phosphorylation enrichment:
1. KKLAEYGPQGR [CLCA1_Y147]  0.364
2. DHAGMYGLGDR [MAPT_Y18_T17M]  0.391
3. EPDSLYGCGRG [ATM_Y2019_G2023R]  0.399
4. SMAKFYASGIA [ACADSB_Y373_E376G_YF]  0.428
5. YDEYRYRSVIK [CFTR_Y517]  0.435
6. AGGTRYRFVSQ [UCN3_Y95_R91G_YF]  0.461
7. NVVHEYSSELE [FGB_Y172_N170H]  0.472
8. DGLALYTGSAL [COL6A3_Y524_S521L]  0.479
9. GHGEEYPVAGA [NOTCH3_Y2221_A2223V]  0.481
10. VECRVYAEDPF [PCCA_Y401_YF]  0.495
11. QHNPEYVQQAT [LRRC7_Y1058_S1063T]  0.505
12. TYTVSYLPDMS [FLNC_Y1602]  0.512
13. CLLHCYFSQIR [MCM3AP_Y873]  0.518
14. AVNNFYAAKKT [CCDC178_Y422_D420N]  0.52
15. AGLEEYSAMRD [HRAS_Y64_Q61L]  0.52
16. LLARLYRGQAL [FGFR4_Y390_G388R]  0.529
17. HPFNSYTFPRL [PAK5_Y316_S312P_YF]  0.531
18. HKGASYVFRLS [PTPRD_Y891]  0.536
19. WKEREYEVVRD [CPS1_Y634_I632R]  0.554
20. FIGVTYKNEED [PDGFRA_Y993_YF]  0.584
21. RTLSEYARPHV [RERE_Y1259]  0.606
22. TEDPEYDVQSK [PTCHD3_Y335]  0.689
23. GTPVMYTYDEY [COL10A1_Y623]  0.743
24. LSALDYKIFFF [WDPCP_Y210_YF]  0.753
25. YRDALYKFMVD [PHEX_Y250]  0.869
26. TSKLNYLDPRI [TOP1_Y723]  0.919
27. LNERHYGGLTD [PGAM2_Y92_G97D]  0.977
28. RDSQLYAVDYE [MRPS34_Y34]  1.08
29. REESTYLPLTS [ICAM3_Y527]  1.19
30. ALAAPYVLYPS [CEFIP_Y1332_G1337S]  2.02
31. QRAADYYSQQM [GBP6_Y333]  2.32
32. GGMTEYELVVV [KRAS_Y4_K5E]  2.95
33. QNTGNYYDLYG [PTPN11_Y62_D61N]  22.8

molecular target: FGFR3 (UniProt P22607); experiment: as above
Sequence (P22607 whole entry, looked up): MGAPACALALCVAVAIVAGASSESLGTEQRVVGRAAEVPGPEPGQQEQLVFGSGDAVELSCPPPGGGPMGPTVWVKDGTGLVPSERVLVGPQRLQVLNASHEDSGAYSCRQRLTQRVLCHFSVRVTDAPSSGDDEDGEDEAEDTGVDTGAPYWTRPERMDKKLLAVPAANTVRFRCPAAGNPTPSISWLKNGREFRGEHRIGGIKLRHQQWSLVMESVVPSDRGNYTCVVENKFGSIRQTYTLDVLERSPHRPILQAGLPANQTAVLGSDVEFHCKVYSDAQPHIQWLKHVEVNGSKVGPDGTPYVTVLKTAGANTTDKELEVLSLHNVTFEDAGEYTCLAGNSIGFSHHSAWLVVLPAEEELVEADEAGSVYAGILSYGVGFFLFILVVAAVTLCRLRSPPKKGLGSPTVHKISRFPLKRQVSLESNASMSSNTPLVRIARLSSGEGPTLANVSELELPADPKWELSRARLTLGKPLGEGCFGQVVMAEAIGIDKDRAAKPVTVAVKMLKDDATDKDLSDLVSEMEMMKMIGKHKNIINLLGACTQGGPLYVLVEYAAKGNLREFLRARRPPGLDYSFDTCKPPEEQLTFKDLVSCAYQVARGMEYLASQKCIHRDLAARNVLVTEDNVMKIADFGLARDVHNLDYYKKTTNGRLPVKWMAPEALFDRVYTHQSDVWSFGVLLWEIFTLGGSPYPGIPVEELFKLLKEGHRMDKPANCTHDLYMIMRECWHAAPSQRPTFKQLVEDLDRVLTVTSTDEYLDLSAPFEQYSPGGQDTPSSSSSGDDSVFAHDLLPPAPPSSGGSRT

In order of falling phosphorylation enrichment:
1. QNTGNYYDLYG [PTPN11_Y62_D61N]  20.6
2. QRAADYYSQQM [GBP6_Y333]  1.75
3. GGMTEYELVVV [KRAS_Y4_K5E]  1.62
4. REESTYLPLTS [ICAM3_Y527]  1.51
5. RDSQLYAVDYE [MRPS34_Y34]  1.38
6. ALAAPYVLYPS [CEFIP_Y1332_G1337S]  1.28
7. YRDALYKFMVD [PHEX_Y250]  1.25
8. LNERHYGGLTD [PGAM2_Y92_G97D]  1.12
9. GTPVMYTYDEY [COL10A1_Y623]  0.893
10. CLLHCYFSQIR [MCM3AP_Y873]  0.867
11. VECRVYAEDPF [PCCA_Y401_YF]  0.845
12. LSALDYKIFFF [WDPCP_Y210_YF]  0.833
13. HKGASYVFRLS [PTPRD_Y891]  0.818
14. HPFNSYTFPRL [PAK5_Y316_S312P_YF]  0.786
15. TEDPEYDVQSK [PTCHD3_Y335]  0.738
16. DGLALYTGSAL [COL6A3_Y524_S521L]  0.723
17. NVVHEYSSELE [FGB_Y172_N170H]  0.705
18. WKEREYEVVRD [CPS1_Y634_I632R]  0.684
19. YDEYRYRSVIK [CFTR_Y517]  0.67
20. AGLEEYSAMRD [HRAS_Y64_Q61L]  0.666
21. TYTVSYLPDMS [FLNC_Y1602]  0.656
22. FIGVTYKNEED [PDGFRA_Y993_YF]  0.629
23. LLARLYRGQAL [FGFR4_Y390_G388R]  0.592
24. TSKLNYLDPRI [TOP1_Y723]  0.585
25. EPDSLYGCGRG [ATM_Y2019_G2023R]  0.576
26. SMAKFYASGIA [ACADSB_Y373_E376G_YF]  0.561
27. QHNPEYVQQAT [LRRC7_Y1058_S1063T]  0.553
28. RTLSEYARPHV [RERE_Y1259]  0.51
29. GHGEEYPVAGA [NOTCH3_Y2221_A2223V]  0.48
30. AVNNFYAAKKT [CCDC178_Y422_D420N]  0.402
31. DHAGMYGLGDR [MAPT_Y18_T17M]  0.393
32. AGGTRYRFVSQ [UCN3_Y95_R91G_YF]  0.377
33. KKLAEYGPQGR [CLCA1_Y147]  0.361

molecular target: Fes (UniProt P07332); experiment: as above
Sequence (P07332 whole entry, looked up): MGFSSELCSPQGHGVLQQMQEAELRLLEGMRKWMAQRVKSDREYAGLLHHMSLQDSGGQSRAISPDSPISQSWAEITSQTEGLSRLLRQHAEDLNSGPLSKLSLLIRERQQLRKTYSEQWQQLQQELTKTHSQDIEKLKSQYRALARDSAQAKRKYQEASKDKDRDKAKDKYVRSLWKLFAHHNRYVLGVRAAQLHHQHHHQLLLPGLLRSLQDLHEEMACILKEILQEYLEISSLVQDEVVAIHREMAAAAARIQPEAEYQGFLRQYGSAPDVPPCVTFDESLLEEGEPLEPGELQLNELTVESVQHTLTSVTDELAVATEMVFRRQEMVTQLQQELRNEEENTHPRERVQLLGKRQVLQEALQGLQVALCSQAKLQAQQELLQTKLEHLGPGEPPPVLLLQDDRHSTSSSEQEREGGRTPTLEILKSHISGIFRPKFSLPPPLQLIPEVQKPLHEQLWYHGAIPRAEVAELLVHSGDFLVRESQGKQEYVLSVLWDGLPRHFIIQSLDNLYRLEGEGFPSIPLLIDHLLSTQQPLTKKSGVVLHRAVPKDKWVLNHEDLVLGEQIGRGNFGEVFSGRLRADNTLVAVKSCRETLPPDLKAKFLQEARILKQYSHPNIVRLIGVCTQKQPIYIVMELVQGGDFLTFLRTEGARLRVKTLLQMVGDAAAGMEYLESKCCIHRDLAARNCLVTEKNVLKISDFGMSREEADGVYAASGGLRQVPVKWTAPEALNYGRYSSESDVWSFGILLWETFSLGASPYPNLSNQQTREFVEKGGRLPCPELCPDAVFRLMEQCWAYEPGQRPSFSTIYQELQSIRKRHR

In order of rising phosphorylation enrichment:
1. AGGTRYRFVSQ [UCN3_Y95_R91G_YF]  0.43
2. KKLAEYGPQGR [CLCA1_Y147]  0.519
3. DHAGMYGLGDR [MAPT_Y18_T17M]  0.558
4. AVNNFYAAKKT [CCDC178_Y422_D420N]  0.58
5. TSKLNYLDPRI [TOP1_Y723]  0.599
6. SMAKFYASGIA [ACADSB_Y373_E376G_YF]  0.636
7. LNERHYGGLTD [PGAM2_Y92_G97D]  0.663
8. GHGEEYPVAGA [NOTCH3_Y2221_A2223V]  0.755
9. QHNPEYVQQAT [LRRC7_Y1058_S1063T]  0.799
10. ALAAPYVLYPS [CEFIP_Y1332_G1337S]  0.811
11. TYTVSYLPDMS [FLNC_Y1602]  0.874
12. LLARLYRGQAL [FGFR4_Y390_G388R]  0.887
13. EPDSLYGCGRG [ATM_Y2019_G2023R]  0.926
14. HPFNSYTFPRL [PAK5_Y316_S312P_YF]  0.957
15. YDEYRYRSVIK [CFTR_Y517]  0.973
16. AGLEEYSAMRD [HRAS_Y64_Q61L]  0.997
17. TEDPEYDVQSK [PTCHD3_Y335]  1.01
18. GGMTEYELVVV [KRAS_Y4_K5E]  1.04
19. LSALDYKIFFF [WDPCP_Y210_YF]  1.05
20. GTPVMYTYDEY [COL10A1_Y623]  1.09
21. NVVHEYSSELE [FGB_Y172_N170H]  1.1
22. RTLSEYARPHV [RERE_Y1259]  1.11
23. FIGVTYKNEED [PDGFRA_Y993_YF]  1.11
24. WKEREYEVVRD [CPS1_Y634_I632R]  1.12
25. DGLALYTGSAL [COL6A3_Y524_S521L]  1.17
26. CLLHCYFSQIR [MCM3AP_Y873]  1.32
27. YRDALYKFMVD [PHEX_Y250]  1.33
28. HKGASYVFRLS [PTPRD_Y891]  1.34
29. QRAADYYSQQM [GBP6_Y333]  1.53
30. QNTGNYYDLYG [PTPN11_Y62_D61N]  1.65
31. VECRVYAEDPF [PCCA_Y401_YF]  1.68
32. REESTYLPLTS [ICAM3_Y527]  1.75
33. RDSQLYAVDYE [MRPS34_Y34]  2.77
